The target of the test is endogenous bradykinin receptor of α7/5-HT3-SH-EP1 cells. As to the kind of experiment: cell-based or functional assay.

“bradykinin (from UniProt P01042 381-389) (peptide)”: the increase in intracellular calcium (Calcium Green-1, FLIPR) was 100 nM.

For the origin of these results see patent US20040132187A1.
